Laboratory results: patent publication US20090048164A1
No end group written: not given here. FLAG = FLAG tag

What was measured:
[1] = target: mouse Mcl-1 with truncations of 151 amino acid residues at its N-terminus and 23 residues at its C-terminus (mouse) (UniProt P97287); experiment: competition phage ELISA
[2] = target: Recombinant human Bcl-xL with a 25 amino acid truncation of its C-terminus (human) (UniProt Q07817); experiment: competition phage ELISA
Sequence of Recombinant human Bcl-xL with a 25 amino acid truncation of its C-terminus (human) (Q07817 1-208): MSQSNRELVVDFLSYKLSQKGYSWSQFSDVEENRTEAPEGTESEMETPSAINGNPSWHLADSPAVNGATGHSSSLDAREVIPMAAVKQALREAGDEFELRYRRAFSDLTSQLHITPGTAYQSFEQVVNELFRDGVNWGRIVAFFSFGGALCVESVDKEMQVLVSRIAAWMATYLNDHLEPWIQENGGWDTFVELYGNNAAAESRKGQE

Sequence of mouse Mcl-1 with truncations of 151 amino acid residues at its N-terminus and 23 residues at its C-terminus (mouse) (P97287 152-308): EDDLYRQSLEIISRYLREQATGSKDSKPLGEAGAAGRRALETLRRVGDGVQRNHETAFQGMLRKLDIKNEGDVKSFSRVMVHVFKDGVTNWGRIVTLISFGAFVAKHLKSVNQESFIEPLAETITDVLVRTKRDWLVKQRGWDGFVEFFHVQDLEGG

| Binder | Fold/wt [1] [fold] | IC50 [1] [nM] | Fold/wt [2] [fold] | IC50 [2] [nM] |
| --- | --- | --- | --- | --- |
| {FLAG}-RAELPPEAAAQLRKIGDKVYCTWSAP-{GGGT-g3(249-406)} [mNoxaA BH3 F8A, phage-displayed] | 1 | 24 |  |  |
| NLWAAQRYGRELRRASDEFVDSFKKG [Bad BH3 M15A, phage-displayed] |  |  | 3 | 6 |
| NLWAAQRYGRELRRMSDEFVDAFKKG [Bad BH3 S22A, phage-displayed] |  |  | 2 | 4 |
| NLWAAQRYGRELRAMSDEFVDSFKKG [Bad BH3 R14A, phage-displayed] |  |  | 2 | 4 |
| {FLAG}-RAELAPEFAAQLRKIGDKVYCTWSAP-{GGGT-g3(249-406)} [mNoxaA BH3 P5A, phage-displayed] | 1 | 20 |  |  |
| {FLAG}-RAELPPEFAEQLRKIGDKVYCTWSAP-{GGGT-g3(249-406)} [mNoxaA BH3 A10E, phage-displayed] | 1 | 43 |  |  |
| {FLAG}-RAELPPAFAAQLRKIGDKVYCTWSAP-{GGGT-g3(249-406)} [mNoxaA BH3 E7A, phage-displayed] | 1 | 43 |  |  |
| NLAAAQRYGRELRRMSDEFVDSFKKG [Bad BH3 W3A, phage-displayed] |  |  | 1 | 3 |
| NLWAEQRYGRELRRMSDEFVDSFKKG [Bad BH3 A5E, phage-displayed] |  |  | 5 | 12 |
| NLWAAQRYGRELRRMSDEFVDSFAKG [Bad BH3 K24A, phage-displayed] |  |  | 2 | 4 |
| NLWAAQRYGRELRRMSDAFVDSFKKG [Bad BH3 E18A, phage-displayed] |  |  | 2 | 4 |
| PSSTMGQVGRQLEIIGDDINRRYDSE [Bak BH3 A13E, phage-displayed] | 17 | 356 |  |  |
| NLWAAARYGRELRRMSDEFVDSFKKG [Bad BH3 Q6A, phage-displayed] |  |  | 2 | 3 |
| NLWAAQRYGRELRRMSDEFVDSAKKG [Bad BH3 F23A, phage-displayed] |  |  | 2 | 4 |
| {FLAG}-AAELPPEFAAQLRKIGDKVYCTWSAP-{GGGT-g3(249-406)} [mNoxaA BH3 R1A, phage-displayed] | 1 | 20 |  |  |
| PSSTMGQVGRQLAIIGDDANRRYDSE [Bak BH3 I19A, phage-displayed] | 9 | 185 |  |  |
| RAELPPEFAAQLRKIGDKVYCTWSAP-{GGGT-g3(249-406)} (not fully specified (N-terminus)) [mNoxaA BH3 wild type, phage-displayed] | 1 | 39 |  |  |
| NLWAAQRYGRELRRMSDEAVDSFKKG [Bad BH3 F19A, phage-displayed] |  |  | 12 | 27 |
| NLWAAQRYGAELRRMSDEFVDSFKKG [Bad BH3 R10A, phage-displayed] |  |  | 1 | 3 |
| RAELPPEFAAQLRKIGDKVACTWSAP-{GGGT-g3(249-406)} (not fully specified (N-terminus)) [mNoxaA BH3 Y20A, phage-displayed] | 1 | 32 |  |  |
| NLWAAQRYGRELARMSDEFVDSFKKG [Bad BH3 R13A, phage-displayed] |  |  | 1 | 3 |
| {FLAG}-RAELPPEFEAQLRKIGDKVYCTWSAP-{GGGT-g3(249-406)} [mNoxaA BH3 A9E, phage-displayed] | 2 | 76 |  |  |
| PSSTMGQVGRQLAIAGDDINRRYDSE [Bak BH3 I15A, phage-displayed] | 25 | 517 |  |  |
| NLWAAQRYGRELRRMSDEFVASFKKG [Bad BH3 D21A, phage-displayed] |  |  | 1 | 2 |
| {FLAG}-RAELPPEFAAQLRKIGDKVYCAWSAP-{GGGT-g3(249-406)} [mNoxaA BH3 T22A, phage-displayed] | < 1 | 14 |  |  |
| NLWAAQRAGRELRRMSDEFVDSFKKG [Bad BH3 Y8A, phage-displayed] |  |  | 3 | 7 |

| Binder | Fold/wt [1] [fold] | IC50 [1] [nM] | Fold/wt [2] [fold] | IC50 [2] [nM] |
| --- | --- | --- | --- | --- |
| {FLAG}-RAELPPEFAAQARKIGDKVYCTWSAP-{GGGT-g3(249-406)} [mNoxaA BH3 L12A, phage-displayed] | 2 | 67 |  |  |
| {FLAG}-RAELPPEFAAQLRKIGDAVYCTWSAP-{GGGT-g3(249-406)} [mNoxaA BH3 K18A, phage-displayed] | < 1 | 11 |  |  |
| NLWAAQRYGRELRRMSDEFADSFKKG [Bad BH3 V20A, phage-displayed] |  |  | 1 | 3 |
| {FLAG}-RAELPPEFAAQLRKIGDKVYATWSAP-{GGGT-g3(249-406)} [mNoxaA BH3 C21A, phage-displayed] | 1 | 19 |  |  |
| {FLAG}-RAELPPEFAAQLRKIGDKVYCTWSEP-{GGGT-g3(249-406)} [mNoxaA BH3 A25E, phage-displayed] | 1 | 33 |  |  |
| NLWAAQRYGRELRRMSDEFVDSFKKE [Bad BH3 G26E, phage-displayed] |  |  | 1 | 3 |
| NLWAAQRYGRELRRMSDEFVDSFKAG [Bad BH3 K25A, phage-displayed] |  |  | 2 | 4 |
| {FLAG}-RAELPPEFAAQLRKIGDKVYCTWAAP-{GGGT-g3(249-406)} [mNoxaA BH3 S24A, phage-displayed] | < 1 | 13 |  |  |
| {FLAG}-RAALPPEFAAQLRKIGDKVYCTWSAP-{GGGT-g3(249-406)} [mNoxaA BH3 E3A, phage-displayed] | 1 | 30 |  |  |
| {FLAG}-REELPPEFAAQLRKIGDKVYCTWSAP-{GGGT-g3(249-406)} [mNoxaA BH3 A2E, phage-displayed] | 1 | 22 |  |  |
| {FLAG}-RAELPAEFAAQLRKIGDKVYCTWSAP-{GGGT-g3(249-406)} [mNoxaA BH3 P6A, phage-displayed] | < 1 | 8 |  |  |
| {FLAG}-RAELPPEFAAALRKIGDKVYCTWSAP-{GGGT-g3(249-406)} [mNoxaA BH3 Q11A, phage-displayed] | 1 | 22 |  |  |
| ALWAAQRYGRELRRMSDEFVDSFKKG [Bad BH3 N1A, phage-displayed] |  |  | 1 | 2 |
| RAELPPEFAAQLRKIGDKVYCTASAP-{GGGT-g3(249-406)} (not fully specified (N-terminus)) [mNoxaA BH3 W23A, phage-displayed] | 2 | 69 |  |  |
| QEDIIRNIARHLAQAGDSMDRSIPPG [Bid BH3 V15A, phage-displayed] | 2 | 245 |  |  |
| PSSTMGQVERQLAIIGDDINRRYDSE [Bak BH3 G9E, phage-displayed] | 21 | 438 |  |  |
| NLWEAQRYGRELRRMSDEFVDSFKKG [Bad BH3 A4E, phage-displayed] |  |  | 2 | 4 |
| {FLAG}-RAEAPPEFAAQLRKIGDKVYCTWSAP-{GGGT-g3(249-406)} [mNoxaA BH3 L4A, phage-displayed] | 1 | 24 |  |  |
| NAWAAQRYGRELRRMSDEFVDSFKKG [Bad BH3 L2A, phage-displayed] |  |  | 2 | 4 |
| NLWAAQAYGRELRRMSDEFVDSFKKG [Bad BH3 R7A, phage-displayed] |  |  | 2 | 4 |
| {FLAG}-RAELPPEFAAQLAKIGDKVYCTWSAP-{GGGT-g3(249-406)} [mNoxaA BH3 R13A, phage-displayed] | 1 | 57 |  |  |
| PSSTMGQVGRQAAIIGDDINRRYDSE [Bak BH3 L12A, phage-displayed] | 20 | 414 |  |  |
| {FLAG}-RAELPPEFAAQLRAIGDKVYCTWSAP-{GGGT-g3(249-406)} [mNoxaA BH3 K14A, phage-displayed] | 1 | 37 |  |  |
| PSSTMGQAGRQLAIIGDDINRRYDSE [Bak BH3 V8A, phage-displayed] | 4 | 79 |  |  |
| NLWAAQRYGRELRRMSAEFVDSFKKG [Bad BH3 D17A, phage-displayed] |  |  | 7 | 16 |
